Assay results as given in patent publication US20200316166A1, “Drug and Method for Treating Liver Diseases Related to Hepatitis B Viruses in Full-Dose Condition” (Shanghai Hep Pharmaceutical Co., Ltd., priority 2017, published 2020).

How the values were obtained:
[1] = target: T1, NTCP (Homo sapiens, UniProt Q14973); assay: Binding of FITC-labeled polypeptide to NTCP-293 cells; conditions: FITC label; for binding to NTCP-293 cells: 293 cells transfected with NTCP; for binding to 293 cells not transfected with NTCP (BLANK-293): control cells
T1 construct: expressed in transfected cells; host or cells: 293 (HEK293) cells
T1 sequence (Q14973 1-349): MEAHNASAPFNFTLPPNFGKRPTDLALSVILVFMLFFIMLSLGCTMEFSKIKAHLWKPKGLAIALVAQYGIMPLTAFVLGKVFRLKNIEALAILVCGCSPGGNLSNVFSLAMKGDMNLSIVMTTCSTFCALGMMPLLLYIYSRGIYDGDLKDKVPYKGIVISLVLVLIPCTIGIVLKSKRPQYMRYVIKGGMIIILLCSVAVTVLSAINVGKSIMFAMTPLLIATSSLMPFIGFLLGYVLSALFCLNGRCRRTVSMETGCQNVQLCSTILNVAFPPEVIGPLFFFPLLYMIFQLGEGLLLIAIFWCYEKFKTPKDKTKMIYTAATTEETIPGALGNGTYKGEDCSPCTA
Source text: NTCP-293 cell line was formed by transfecting non-hepatocyte-derived 293 cells with NTCP.

[2] = target: sodium taurocholate cotransporting polypeptide (NTCP) expressed on transfected 293 cells (NTCP-293) (human) (UniProt Q14973); assay: cell-based or functional assay
[3] = listed as hepalatide labeled with FIFC

hepalatide, sequence (P31868 13-59): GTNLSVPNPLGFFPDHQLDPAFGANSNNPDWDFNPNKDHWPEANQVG

FITC-hepalatide: hepalatide (Cmyr-47) fluorescently labeled by FITC at amino acid K at position 37
binding to NTCP-293 cells [1]: bound to NTCP-293 cells | binding to NTCP-293 cells [1, 3]: bind to NTCP expressing HEK293 cells | binding to 293 cells not transfected with NTCP (BLANK-293) [1]: did not bind to 293 cells | binding to 293 cells not transfected with NTCP (BLANK-293) [1, 3]: do not bind to control HEK293 cells

hepalatide (peptide)
IC50 of inhibition of NTCP-293 uptake of 3H-labeled bile acid (3H-TA) [2]: 0.839 µg/mL
